The target of this test is T1, CBP-PHYA (recombinant full-length PHYA) (Arabidopsis, UniProt P14712 1-1122).
T1 construct: phytochrome A (PHYA), Arabidopsis, At1g09570, full length; coding region cloned into pCAL-n in frame with an upstream CBP tag; Made in E. coli; no chromophore is mentioned; also called CBP-PHYA-F; source: E. coli (BL21), purified (Calmodulin Resin)
T1 sequence (looked up): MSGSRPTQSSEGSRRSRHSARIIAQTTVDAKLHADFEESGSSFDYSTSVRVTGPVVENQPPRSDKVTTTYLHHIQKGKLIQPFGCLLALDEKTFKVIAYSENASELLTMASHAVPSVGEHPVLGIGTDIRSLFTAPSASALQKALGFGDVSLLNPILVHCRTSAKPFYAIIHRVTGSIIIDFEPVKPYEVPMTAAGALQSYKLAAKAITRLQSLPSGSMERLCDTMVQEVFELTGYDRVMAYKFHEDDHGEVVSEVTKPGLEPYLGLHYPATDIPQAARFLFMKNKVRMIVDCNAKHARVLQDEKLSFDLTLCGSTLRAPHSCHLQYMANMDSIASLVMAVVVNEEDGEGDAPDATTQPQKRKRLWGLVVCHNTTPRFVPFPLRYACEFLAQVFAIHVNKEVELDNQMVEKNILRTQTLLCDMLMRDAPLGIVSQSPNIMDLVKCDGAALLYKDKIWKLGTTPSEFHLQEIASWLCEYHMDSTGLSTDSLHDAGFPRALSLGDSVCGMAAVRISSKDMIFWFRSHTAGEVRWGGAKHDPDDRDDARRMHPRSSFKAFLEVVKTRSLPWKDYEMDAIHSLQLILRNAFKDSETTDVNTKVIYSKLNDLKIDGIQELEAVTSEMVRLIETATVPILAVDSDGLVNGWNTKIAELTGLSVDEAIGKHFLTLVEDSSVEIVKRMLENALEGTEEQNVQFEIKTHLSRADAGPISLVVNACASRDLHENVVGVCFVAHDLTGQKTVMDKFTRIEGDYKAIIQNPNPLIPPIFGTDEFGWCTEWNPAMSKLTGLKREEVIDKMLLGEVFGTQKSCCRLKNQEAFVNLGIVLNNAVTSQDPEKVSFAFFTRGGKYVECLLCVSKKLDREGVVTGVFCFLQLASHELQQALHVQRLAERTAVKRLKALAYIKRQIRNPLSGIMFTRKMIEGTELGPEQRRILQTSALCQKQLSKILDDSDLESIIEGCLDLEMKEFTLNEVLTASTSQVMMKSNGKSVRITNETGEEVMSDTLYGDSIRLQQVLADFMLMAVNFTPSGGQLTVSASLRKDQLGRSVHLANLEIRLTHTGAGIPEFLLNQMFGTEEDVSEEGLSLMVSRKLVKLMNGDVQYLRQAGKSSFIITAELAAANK
As to the kind of experiment: pull-down; 1 μg GST-tagged FIN219 protein on 10 μl GST beads overnight at 4°C in 1 ml 1X PBS, then 1 μg CBP-PHYA for 2 h at 4°C; eight washes with 1X PBS; blots with anti-GST and anti-phyA. Conditions: both partners purified.

The values below come from paper PMC10237651, “Arabidopsis FIN219/JAR1 interacts with phytochrome A under far-red light and jasmonates in regulating hypocotyl elongation via a functional demand manner” (PLOS Genetics, 2023).

B1: GST-FIN219-FL (enzyme, Arabidopsis, UniProt Q9SKE2 1-575, looked up)
chain: MLEKVETFDMNRVIDEFDEMTRNAHQVQKQTLKEILLKNQSAIYLQNCGLNGNATDPEEAFKSMVPLVTDVELEPYIKRMVDGDTSPILTGHPVPAISLSSGTSQGRPKFIPFTDELMENTLQLFRTAFAFRNRDFPIDDNGKALQFIFSSKQYISTGGVPVGTATTNVYRNPNFKAGMKSITSPSCSPDEVIFSPDVHQALYCHLLSGILFRDQVQYVFAVFAHGLVHAFRTFEQVWEEIVTDIKDGVLSNRITVPSVRTAMSKLLTPNPELAETIRTKCMSLSNWYGLIPALFPNAKYVYGIMTGSMEPYVPKLRHYAGDLPLVSHDYGSSEGWIAANVTPRLSPEEATFAVIPNLGYFEFLPVSETGEGEEKPVGLTQVKIGEEYEVVITNYAGLYRYRLGDVVKVIGFYNNTPQLKFICRRNLILSINIDKNTERDLQLSVESAAKRLSEEKIEVIDFSSYIDVSTDPGHYAIFWEISGETNEDVLQDCCNCLDRAFIDAGYVSSRKCKTIGALELRVVAKGTFRKIQEHFLGLGSSAGQFKMPRCVKPSNAKVLQILCENVVSSYFSTAF
notes: FIN219/JAR1, Arabidopsis, At2g46370, full length; also called full-length FIN219; source: E. coli, purified (Glutathione Sepharose 4B)
Take B1: the binding result is recorded as “binds”.
